In paper PMC3229523, “Identification of Lactoferricin B Intracellular Targets Using an Escherichia coli Proteome Chip” (PLoS ONE, 2011):
Ends that are not written are not given here. * marks the point of attachment. Biotin = O=C1N[C@H]2[C@H](CS[C@H]2CCCCC(=O)*)N1

Experiments:
Experiment in all cases: peptide or protein array; E. coli proteome chip: purified His-tagged proteins printed in duplicate on Fullmoon slides, blocked with 1% BSA; 10 nM N-terminal biotinylated LfcinB with 1% BSA, room temperature, 1 h; detected with DyLight 649-labeled streptavidin, ratio to DyLight 549-labeled anti-His antibody; ProCAT normalisation, local cut-off; triplicate chips
Conditions in all cases: both partners purified
RplE = RplE (E. coli K-12, UniProt P62399 1-179)
YqcA = biological target: T1, YqcA (E. coli K-12, UniProt P65367 1-149)
T1 construct: YqcA, E. coli K-12
T1 sequence (looked up): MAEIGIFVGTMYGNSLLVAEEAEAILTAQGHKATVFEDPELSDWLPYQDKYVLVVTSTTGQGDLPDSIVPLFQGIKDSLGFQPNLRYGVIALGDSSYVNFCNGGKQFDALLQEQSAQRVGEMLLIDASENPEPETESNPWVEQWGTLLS

InfC = biological target: T2, InfC (E. coli K-12, UniProt P0A707 1-180)
T2 construct: InfC, E. coli K-12
T2 sequence (looked up): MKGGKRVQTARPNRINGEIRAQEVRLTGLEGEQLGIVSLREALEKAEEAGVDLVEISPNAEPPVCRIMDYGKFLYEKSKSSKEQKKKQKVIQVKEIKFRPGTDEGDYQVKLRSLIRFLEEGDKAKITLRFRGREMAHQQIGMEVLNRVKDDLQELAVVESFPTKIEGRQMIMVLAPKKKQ

YciT = biological target: T3, YciT (E. coli K-12, UniProt P76034 1-249)
T3 construct: YciT, E. coli K-12
T3 sequence (looked up): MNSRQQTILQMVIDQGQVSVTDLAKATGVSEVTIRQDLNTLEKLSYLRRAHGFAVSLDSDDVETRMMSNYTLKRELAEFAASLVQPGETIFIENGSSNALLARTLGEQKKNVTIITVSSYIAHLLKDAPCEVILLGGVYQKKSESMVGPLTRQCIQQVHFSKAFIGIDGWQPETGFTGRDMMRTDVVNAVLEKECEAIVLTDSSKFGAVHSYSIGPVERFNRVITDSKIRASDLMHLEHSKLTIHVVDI

SfmH = biological target: T4, SfmH (E. coli K-12, UniProt P75715 25-327)
T4 construct: SfmH, E. coli K-12
T4 sequence (looked up): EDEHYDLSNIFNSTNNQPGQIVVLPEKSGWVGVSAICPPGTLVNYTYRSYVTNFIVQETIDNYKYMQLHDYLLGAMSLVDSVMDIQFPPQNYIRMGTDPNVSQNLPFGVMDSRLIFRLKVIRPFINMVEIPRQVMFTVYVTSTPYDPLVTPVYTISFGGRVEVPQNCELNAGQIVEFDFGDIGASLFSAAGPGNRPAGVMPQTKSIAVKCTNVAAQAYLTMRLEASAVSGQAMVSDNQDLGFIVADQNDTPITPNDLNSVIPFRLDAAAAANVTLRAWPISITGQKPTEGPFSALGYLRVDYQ

YibB = biological target: T5, YibB (E. coli K-12, UniProt P25666 1-285)
T5 construct: YibB, E. coli K-12
T5 sequence (looked up): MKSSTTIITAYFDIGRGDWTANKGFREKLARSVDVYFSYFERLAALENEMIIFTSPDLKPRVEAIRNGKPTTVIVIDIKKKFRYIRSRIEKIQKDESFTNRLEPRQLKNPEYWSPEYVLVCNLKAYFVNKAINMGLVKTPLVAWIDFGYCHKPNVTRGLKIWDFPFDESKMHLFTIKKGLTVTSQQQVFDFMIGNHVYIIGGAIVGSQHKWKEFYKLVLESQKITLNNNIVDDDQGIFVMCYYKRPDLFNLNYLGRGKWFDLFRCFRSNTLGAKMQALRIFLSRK

BasR = biological target: T6, BasR (E. coli K-12, UniProt P30843 1-222)
T6 construct: BasR, E. coli K-12
T6 sequence (looked up): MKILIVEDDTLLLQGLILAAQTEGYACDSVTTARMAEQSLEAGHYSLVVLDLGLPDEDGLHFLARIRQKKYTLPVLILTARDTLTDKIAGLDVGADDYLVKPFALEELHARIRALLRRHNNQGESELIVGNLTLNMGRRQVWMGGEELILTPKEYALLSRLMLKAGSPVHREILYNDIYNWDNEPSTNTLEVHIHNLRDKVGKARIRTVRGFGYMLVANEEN

Measured: binding result

B1: N-terminal biotinylated Lactoferricin B (peptide, UniProt P24627 36-60, looked up)
peptide: Biotin-FKCRRWQWRMKKLGAPSITCVRRAF
modifications: ends and bridges not checked
notes: lactoferricin B (LfcinB), cationic antimicrobial peptide of 25 amino acids; also called biotinylated LfcinB; biotin-labeled LfcinB; source: bought: Kelowna Inc
binds: all assays above
